Data from US20100292443A1 (published 2010).

Molecular target: T1, protein A (immobilized on a protein A column) (UniProt P38507 37-327)
T1 construct: Other paragraphs mention recombinant protein A on agarose and ProSep-vA-Ultra resin; also called protein A resin
Test: protein A column equilibrated with 20 mM TRIS pH 8, after papain digestion
Procedure: Purified, intact anti-S1P IgG was digested with activated papain (incubated 10 mg/ml papain in 5.5 mM cysteine-HCL, 1 mM EDTA, 70 μM 2-mercaptoethanol for 0.5 hours at 37° C.) in digestion buffer (100:1 LT1009:papain in 50 mM sodium phosphate pH 7.2, 2 mM EDTA). After 2 hours at 37° C., the protease reaction was quenched with 50 mM iodoacetamide, dialyzed against 20 mM TRIS pH 9, and loaded onto 2×5 ml HiTrap Q columns. The bound protein was eluted with a linear gradient of 20 mM TRIS pH 8, 0.5 M NaCl and collected in 4 ml fractions. The fractions containing the anti-S1P Fab fragment were pooled and loaded onto a protein A column equilibrated with 20 mM TRIS pH 8. The intact antibody and the Fc fragment bound to the resin, while the Fab fragment was present in the flow through fraction. The Fab fragment was concentrated using a centricon-YM30 centrifugal concentrator (Millipore, Cat No 4209), dialyzed against 25 mM HEPES pH 7, and stored at 4° C.

B1: LT1009 Fab fragment (anti-S1P Fab fragment, from papain digestion) (Fab)
heavy: EVQLVQSGAEVKKPGESLKISCQSFGYIFIDHTIHWMRQMPGQGLEWMGAISPRHDITKYNEMFRGQVTISADKSSSTAYLQWSSLKASDTAMYFCARGGFYGSTIWFDFWGQGTMVTVSSASTKGPSVFPLAPSSKSTSGGTAALGCLVKDYFPEPVTVSWNSGALTSGVHTFPAVLQSSGLYSLSSVVTVPSSSLGTQTYICNVNHKPSNTKVDKRVEPKSCDKTH
light: ETTVTQSPSFLSASVGDRVTITCITTTDIDDDMNWFQQEPGKAPKLLISEGNILRPGVPSRFSSSGYGTDFTLTISKLQPEDFATYYCLQSDNLPFTFGQGTKLEIKRTVAAPSVFIFPPSDEQLKSGTASVVCLLNNFYPREAKVQWKVDNALQSGNSQESVTEQDSKDSTYSLSSTLTLSKADYEKHKVYACEVTHQGLSSPVTKSFNRGEC
  binding result: no binding
